Data on 1 molecule can be found in patent US20210369842A1 (Genmab, published 2021).

Experiment [1] deals with T1, African elephant (Loxodonta africana) CD137 (African elephant (Loxodonta africana)).
T1 construct: Expressed on transfected HEK293T-17 cells; Amino acids 1-23 are stated as the predicted signal peptide; also called elephant CD137
T1 chain: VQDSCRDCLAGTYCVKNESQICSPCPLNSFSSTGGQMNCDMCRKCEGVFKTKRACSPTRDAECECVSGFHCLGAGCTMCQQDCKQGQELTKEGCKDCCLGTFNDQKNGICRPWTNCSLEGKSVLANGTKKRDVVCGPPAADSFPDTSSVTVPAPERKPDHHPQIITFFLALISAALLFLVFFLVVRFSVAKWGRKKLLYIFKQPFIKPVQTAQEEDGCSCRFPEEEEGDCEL
The experiment is described as follows: flow cytometry on transfected HEK293T-17 cells. Here is the method: (§1) 3×10⁶ HEK293T-17 cells were seeded in T75 culture flasks (Greiner Bio-One, cat. no. 658175) in 20 mL RPMI 1640 GlutaMAX medium containing 10% FCS (Biochrom, cat. no. S 0115). After O/N incubation, cells were transiently […] with expression vectors encoding the shuffle constructs or the wild boar, African elephant or human CD137 downstream of a constitutively active human elongation factor-1 alpha (EF-1 alpha) promotor using TransIT®-LT1 Transfection Reagent, Mirus Bio (VWR International, cat. no. 731-0029), according to the manufacturer's instructions. The next day, cells were harvested using 1.5 mL Accutase (Sigma Aldrich, cat. no. A6964) (incubation at 37° C. for 5 min.) and flow cytometry was performed, essentially as described supra, to measure surface expression of the shuffle constructs and the human, African elephant and wild boar CD137 and to measure binding of the antibody clones to the different shuffle constructs. […] Binding of the different CD137 antibody clones to cells expressing the shuffle constructs was measured by incubation of the transduced cells with 1 μg/mL of the antibody clones, followed by APC-labeled AffiniPure F(ab′)2 Fragment (1:50 final dilution; Jackson, cat. no. 109-136-127).
(In general: A flow cytometer gives signals particle by particle.)

Experiment [2] concerns the target T2, Human CD137 shuffle 5 (amino acids 48-88 of African elephant CD137) (human CD137 with an African elephant …, UniProt Q07011 24-255).
T2 construct: also called shuffle construct 5
T2 chain: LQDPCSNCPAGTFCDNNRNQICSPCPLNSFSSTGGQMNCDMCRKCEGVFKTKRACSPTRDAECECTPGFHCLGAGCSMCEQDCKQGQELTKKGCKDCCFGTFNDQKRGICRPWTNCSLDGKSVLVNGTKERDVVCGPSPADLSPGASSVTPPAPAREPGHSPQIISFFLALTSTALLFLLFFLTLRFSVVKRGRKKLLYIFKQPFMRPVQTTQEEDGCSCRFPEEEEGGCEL
The experiment is described as follows: flow cytometry on transfected HEK293T-17 cells. Here is the method: as §1

Experiment [3] addresses T3, Wild boar (Sus scrofa) CD137 (wild boar (Sus scrofa)).
T3 construct: Expressed on transfected HEK293T-17 cells; Amino acids 1-23 are stated as the predicted signal peptide; also called wild boar CD137
T3 chain: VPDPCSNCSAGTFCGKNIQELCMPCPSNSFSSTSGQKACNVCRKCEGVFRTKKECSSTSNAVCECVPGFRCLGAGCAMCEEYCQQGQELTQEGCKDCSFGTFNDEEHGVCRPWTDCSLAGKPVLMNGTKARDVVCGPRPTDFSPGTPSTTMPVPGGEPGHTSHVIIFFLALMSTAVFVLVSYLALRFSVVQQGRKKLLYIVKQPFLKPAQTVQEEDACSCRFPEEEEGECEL
The experiment is described as follows: flow cytometry on transfected HEK293T-17 cells. Here is the method: as §1

For the next experiment, the target named is T4, Human CD137 (human, UniProt Q07011 24-255).
T4 construct: Amino acids 1-23 are stated as the predicted signal peptide; also called hCD137 wt; 4-1BB
Put plainly: flow cytometry on HEK293T-17 cells transfected with human CD137, 1 µg/mL antibody. Here is the method:
as §1

The next experiment has as its target T5, Shuffle 2.
T5 construct: Expressed on transiently transfected HEK293-T17 cells; also called Human CD137 shuffle 2 (amino acids 139-161 of wild boar CD137); shuffle construct 2
T5 receptor chain: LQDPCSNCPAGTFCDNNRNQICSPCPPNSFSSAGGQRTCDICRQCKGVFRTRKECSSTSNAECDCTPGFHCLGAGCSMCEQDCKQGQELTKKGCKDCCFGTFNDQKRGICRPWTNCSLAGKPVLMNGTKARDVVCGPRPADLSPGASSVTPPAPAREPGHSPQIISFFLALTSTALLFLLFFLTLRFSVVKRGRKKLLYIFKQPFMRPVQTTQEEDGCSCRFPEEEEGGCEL
The experiment is described as follows: flow cytometry on transfected HEK293-T17 cells, 1 µg/mL antibody, APC-labeled AffiniPure F(ab')2 fragment as secondary. Here is the method:
as §1

For another experiment, the target named is T6, Shuffle 3.
T6 construct: Expressed on transiently transfected HEK293-T17 cells; also called Human CD137 shuffle 3 (amino acids 115-138 of wild boar CD137); shuffle construct 3
T6 receptor chain: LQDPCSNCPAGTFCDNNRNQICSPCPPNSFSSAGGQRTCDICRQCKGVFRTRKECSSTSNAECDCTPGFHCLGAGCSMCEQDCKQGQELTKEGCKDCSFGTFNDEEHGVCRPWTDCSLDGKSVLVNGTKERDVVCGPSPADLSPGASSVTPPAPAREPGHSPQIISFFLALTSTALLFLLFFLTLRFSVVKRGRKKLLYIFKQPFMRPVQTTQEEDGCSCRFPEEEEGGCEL
Described as above. Here is the method:
as §1

Another experiment addresses T7, Shuffle 1.
T7 construct: Expressed on transiently transfected HEK293-T17 cells; also called Human CD137 shuffle 1 (amino acids 162-186 of wild boar CD137); shuffle construct 1
T7 receptor chain: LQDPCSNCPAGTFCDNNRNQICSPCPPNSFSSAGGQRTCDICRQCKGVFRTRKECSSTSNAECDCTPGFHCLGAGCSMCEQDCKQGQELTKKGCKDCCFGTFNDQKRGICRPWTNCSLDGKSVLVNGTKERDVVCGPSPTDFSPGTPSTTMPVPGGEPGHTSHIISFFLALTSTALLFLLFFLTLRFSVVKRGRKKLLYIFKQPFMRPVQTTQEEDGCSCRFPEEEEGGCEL
The description is as above. Here is the method: as §1

The target in the next experiment is T8, Shuffle 4.
T8 construct: Expressed on transiently transfected HEK293-T17 cells; also called Human CD137 shuffle 4 (amino acids 89-114 of wild boar CD137); shuffle construct 4
T8 receptor chain: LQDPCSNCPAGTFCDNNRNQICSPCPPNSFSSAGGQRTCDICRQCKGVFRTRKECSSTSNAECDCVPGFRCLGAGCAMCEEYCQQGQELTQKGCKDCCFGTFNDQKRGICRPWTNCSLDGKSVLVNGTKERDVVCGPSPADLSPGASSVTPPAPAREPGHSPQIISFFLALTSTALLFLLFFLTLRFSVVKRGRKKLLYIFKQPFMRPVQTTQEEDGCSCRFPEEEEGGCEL
The experiment is described as above. Here is the method: as §1

B1: CD137-009 (chimeric rabbit/human CD137 antibody) (antibody, V domains shown)
VH: QSLEESGGRLVTPGTPLTLTCTVSGFSLNDYWMSWVRQAPGKGLEWIGYIDVGGSLYYASWAKGRFTISRTSTTVDLKMTSLTTEDTATYFCARGGLTYGFDLWGPGTLVTVSS
VL: DIVMTQTPASVSEPVGGTVTINCQASEDISSYLAWYQQKPGQRPKRLIYGASDLASGVPSRFSASGSGTEYALTISDLESADAATYYCHYYATISGLGVAFGGGTEVVVK
notes: also called antibody CD137-009; rabbit anti-CD137-009
As for B1, the binding result is reported as “no binding (tested: 1 µg/mL)” in experiment [1]; “no binding (tested: 1 µg/mL)” in experiment [2]; “no binding (tested: 1 µg/mL)” in experiment [3]; “binds” with Human CD137; “binds” in the experiment with Shuffle 2; “binds” in the experiment with Shuffle 3. In addition, the binding result with Shuffle 1 and in the experiment with Shuffle 4 was “binds” throughout.
